Measurements taken from patent publication US20250049896A1 (Regeneron, published 2025).
Positions count from the first letter of the chain named.

B1: 69307 Fab (Fab, V domains shown)
VH: EVQLVESGGGLVQPGGSLRLSCTASGFTFSNYWMTWVRQAPGKGLEWVANIKEDGSEKEYVDSVKGRFTISRDNAKNSLYLQMNSLRGEDTAVYYCARDGEQLVDYYYYYVMDVWGQGTTVTVSS
VL: DIQMTQSPSSVSASVGDRVTITCRASQGISSWLAWYQQKPGKAPKLLIYAASSLQSGVPSRFSGSGSGTDFTLTISSLQPEDFATYYCQKADSLPYAFGQGTKLEIKR
notes: CHO supernatant
B2: 69329 Fab (Fab, V domains shown)
VH: B1 VH with T23A, E59D
VL: B1 VL with D92N, L94F, A97T
notes: CHO supernatant
B3: 69326 Fab (Fab, V domains shown)
VH: EVQLVESGGGLVQPGGSLRLSCAVSGFIFSSYEMNWVRQAPGKGLEWVSYISSSGSTIFYADSVKGRFTISRDNAKNSLYLQMNSLRAEDTAVYYCVSGVVLFDVWGQGTMVTVSS
VL: EIVMTQSPATLSVSPGERATLSCRASQSVSSNFAWYQQKPGQAPRLLIYSASSRATGIPVRFSGSGSGTEFTLTISSLQSEDFAVYYCQQYNIWPRTFGQGTKVEIKR
notes: CHO supernatant
B4: 69326 scFv (VK-VH) (scFv)
scFv: EIVMTQSPATLSVSPGERATLSCRASQSVSSNFAWYQQKPGQAPRLLIYSASSRATGIPVRFSGSGSGTEFTLTISSLQSEDFAVYYCQQYNIWPRTFGQGTKVEIKGGGGSGGGGSGGGGSEVQLVESGGGLVQPGGSLRLSCAVSGFIFSSYEMNWVRQAPGKGLEWVSYISSSGSTIFYADSVKGRFTISRDNAKNSLYLQMNSLRAEDTAVYYCVSGVVLFDVWGQGTMVTVSS
notes: CHO supernatant; Vk-3xG4S-Vh
B5: 69323 Fab (Fab, V domains shown)
VH: EVQLVESGGGLVQPGRSLRLSCAASGFTFDDYAMHWVRQAPGKGLEWVSGISWNSGYIGYADSVKGRFTISRDNAENSLHLQMNSLRAEDTALYYCARGGSTLVRGVKGGYYGMDVWGQGTTVTVSS
VL: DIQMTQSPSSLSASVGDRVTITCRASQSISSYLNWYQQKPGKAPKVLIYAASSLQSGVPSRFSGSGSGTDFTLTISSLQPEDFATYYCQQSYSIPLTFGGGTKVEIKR
notes: CHO supernatant
B6: 69263 Fab (Fab, V domains shown)
VH: EVQLVESGGGLVQPGRSLRLSCAVSGFTFDDYAMHWVRQAPGKGLEWVSGISWNSGTRGYADSVKGRFTISRDNAKNSLYLQMNSLRGEDTALYYCVKDITISPNYYGMDVWGQGTTVTVSS
VL: DIQMTQSPSSLSASVGDRVTITCRASQDISHYSAWYQQKPGKLPNLLIYAASTLQSGVPSRFSGSGSGTDFSLTTSSLQPEDVATYYCQKYNSVPLTFGGGTKVEIKR
notes: CHO supernatant
B7: 69329 scFv (VH-VK) (scFv)
chain: EVQLVESGGGLVQPGGSLRLSCAASGFTFSNYWMTWVRQAPGKGLEWVANIKEDGSEKDYVDSVKGRFTISRDNAKNSLYLQMNSLRGEDTAVYYCARDGEQLVDYYYYYVMDVWGQGTTVTVSSDIQMTQSPSSVSASVGDRVTITCRASQGISSWLAWYQQKPGKAPKLLIYAASSLQSGVPSRFSGSGSGTDFTLTISSLQPEDFATYYCQKANSFPYTFGQGTKLEIK
B8: 69326 scFv (VH-VK) (scFv)
chain: EVQLVESGGGLVQPGGSLRLSCAVSGFIFSSYEMNWVRQAPGKGLEWVSYISSSGSTIFYADSVKGRFTISRDNAKNSLYLQMNSLRAEDTAVYYCVSGVVLFDVWGQGTMVTVSSEIVMTQSPATLSVSPGERATLSCRASQSVSSNFAWYQQKPGQAPRLLIYSASSRATGIPVRFSGSGSGTEFTLTISSLQSEDFAVYYCQQYNIWPRTFGQGTKVEIK
B9: 69305 Fab (Fab, V domains shown)
VH: QVQLVESGGGVVQPGRSLRLSCAASGFTFSSYGMHWVRQAPGKGLEWVAVIWYDGSNKYYADSVKGRFTISRDISKNTLYLQMNSLRAEDTAVYYCAGQLDLFFDYWGQGTLVTVSS
VL: DIQMTQSPSSLSASVGDRVTITCRASQSIDRYLNWYRQKPGKAPKLLIYTTSSLQSGVPSRFSGSGSGTDFTLTLSSLQPEDFATYYCQQSYSPPLTFGGGTKVEIKR
notes: CHO supernatant
B10: 69307 scFv (VK-VH) (scFv)
scFv: DIQMTQSPSSVSASVGDRVTITCRASQGISSWLAWYQQKPGKAPKLLIYAASSLQSGVPSRFSGSGSGTDFTLTISSLQPEDFATYYCQKADSLPYAFGQGTKLEIKGGGGSGGGGSGGGGSEVQLVESGGGLVQPGGSLRLSCTASGFTFSNYWMTWVRQAPGKGLEWVANIKEDGSEKEYVDSVKGRFTISRDNAKNSLYLQMNSLRGEDTAVYYCARDGEQLVDYYYYYVMDVWGQGTTVTVSS
notes: CHO supernatant; Vk-3xG4S-Vh
B11: 69329 scFv (VK-VH) (scFv)
scFv: B10 scFv with D92N, L94F, A97T, T145A, E181D
notes: CHO supernatant; Vk-3xG4S-Vh
B12: 69305 scFv (VH-VK) (scFv)
chain: QVQLVESGGGVVQPGRSLRLSCAASGFTFSSYGMHWVRQAPGKGLEWVAVIWYDGSNKYYADSVKGRFTISRDISKNTLYLQMNSLRAEDTAVYYCAGQLDLFFDYWGQGTLVTVSSDIQMTQSPSSLSASVGDRVTITCRASQSIDRYLNWYRQKPGKAPKLLIYTTSSLQSGVPSRFSGSGSGTDFTLTLSSLQPEDFATYYCQQSYSPPLTFGGGTKVEIK
B13: 69261 Fab (Fab, V domains shown)
VH: QVQLVESGGGLVKPGGSLRLSCAASGFTFSVYYMNWIRQAPGKGLEWVSYISSSGSTIYYADSVKGRFTISRDNAKNSLYLQMNSLRAEDTAVYYCGREGYSGTYSYYGMDVWGQGTTVTVSS
VL: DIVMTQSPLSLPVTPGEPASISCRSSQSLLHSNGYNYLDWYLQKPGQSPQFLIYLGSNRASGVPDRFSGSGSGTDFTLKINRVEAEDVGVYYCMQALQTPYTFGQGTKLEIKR
notes: CHO supernatant
B14: 69263 scFv (VH-VK) (scFv)
chain: EVQLVESGGGLVQPGRSLRLSCAVSGFTFDDYAMHWVRQAPGKGLEWVSGISWNSGTRGYADSVKGRFTISRDNAKNSLYLQMNSLRGEDTALYYCVKDITISPNYYGMDVWGQGTTVTVSSDIQMTQSPSSLSASVGDRVTITCRASQDISHYSAWYQQKPGKLPNLLIYAASTLQSGVPSRFSGSGSGTDFSLTTSSLQPEDVATYYCQKYNSVPLTFGGGTKVEIK
B15: 69305 scFv (VK-VH) (scFv)
scFv: DIQMTQSPSSLSASVGDRVTITCRASQSIDRYLNWYRQKPGKAPKLLIYTTSSLQSGVPSRFSGSGSGTDFTLTLSSLQPEDFATYYCQQSYSPPLTFGGGTKVEIKGGGGSGGGGSGGGGSQVQLVESGGGVVQPGRSLRLSCAASGFTFSSYGMHWVRQAPGKGLEWVAVIWYDGSNKYYADSVKGRFTISRDISKNTLYLQMNSLRAEDTAVYYCAGQLDLFFDYWGQGTLVTVSS
notes: CHO supernatant; Vk-3xG4S-Vh
B16: 69331 Fab (Fab, V domains shown)
VH: QVQLVESGGGVVQPGRSLRLSCIASGFTFSVYGIHWVRQAPGKGLEWMAVISHDGNIKHYADSVKGRFTISRDNSKNTLYLQINSLRTEDTAVYYCAKDTWNSLDTFDIWGQGTMVTVSS
VL: DIQLTQSPSSLSASVGDRVTITCWASQGISSYLAWYQQKPGKAPKLLIYAASTLQSGVPSRFSGSGSGTEFTLTISSLQPEDFATYYCQQLNSYPLTFGGGTKVEIKR
notes: CHO supernatant
B17: 69263 scFv (VK-VH) (scFv)
scFv: DIQMTQSPSSLSASVGDRVTITCRASQDISHYSAWYQQKPGKLPNLLIYAASTLQSGVPSRFSGSGSGTDFSLTTSSLQPEDVATYYCQKYNSVPLTFGGGTKVEIKGGGGSGGGGSGGGGSEVQLVESGGGLVQPGRSLRLSCAVSGFTFDDYAMHWVRQAPGKGLEWVSGISWNSGTRGYADSVKGRFTISRDNAKNSLYLQMNSLRGEDTALYYCVKDITISPNYYGMDVWGQGTTVTVSS
notes: CHO supernatant; Vk-3xG4S-Vh

Target: T1, Hmm-hTFRC (REGN2431), monomeric human transferrin receptor ectodomain with N-terminal hexahistidine-myc-myc … (human, UniProt P02786 89-760)
T1 construct: also called hmm.hTfR(C89-F763); His-myc-myc-hTFRC ecto
Assay: blocking ELISA, supernatant; Hmm-hTFRC binding to immobilized human holo-Tf
Experimental: In the blocking assay, the anti-human Transferrin goat IgG polyclonal antibody (anti-hTf pAb) was passively absorbed at a concentration of 2 micrograms/mL in PBS on a 96-well microtiter plate overnight at 4° C. […] To the same plate, human holo-Tf was then added at a concentration of 1 micrograms/mL in PBS+0.5% BSA for 2 hours at room temperature. […] After a 1-hour incubation, the mixtures were transferred to the human holo-Tf microtiter plates. […] The plates were developed using TMB substrate solution according to the manufacturer's recommended procedure and absorbance at 450 nm was measured on a Victor™ Multilabel Plate Reader.
The ability of the anti-TfR antibody to block human TFRC binding to human holo-Tf was evaluated using an ELISA-based blocking assay.

T1 sequence (P02786 other isoform, or with tags, fused parts or gaps): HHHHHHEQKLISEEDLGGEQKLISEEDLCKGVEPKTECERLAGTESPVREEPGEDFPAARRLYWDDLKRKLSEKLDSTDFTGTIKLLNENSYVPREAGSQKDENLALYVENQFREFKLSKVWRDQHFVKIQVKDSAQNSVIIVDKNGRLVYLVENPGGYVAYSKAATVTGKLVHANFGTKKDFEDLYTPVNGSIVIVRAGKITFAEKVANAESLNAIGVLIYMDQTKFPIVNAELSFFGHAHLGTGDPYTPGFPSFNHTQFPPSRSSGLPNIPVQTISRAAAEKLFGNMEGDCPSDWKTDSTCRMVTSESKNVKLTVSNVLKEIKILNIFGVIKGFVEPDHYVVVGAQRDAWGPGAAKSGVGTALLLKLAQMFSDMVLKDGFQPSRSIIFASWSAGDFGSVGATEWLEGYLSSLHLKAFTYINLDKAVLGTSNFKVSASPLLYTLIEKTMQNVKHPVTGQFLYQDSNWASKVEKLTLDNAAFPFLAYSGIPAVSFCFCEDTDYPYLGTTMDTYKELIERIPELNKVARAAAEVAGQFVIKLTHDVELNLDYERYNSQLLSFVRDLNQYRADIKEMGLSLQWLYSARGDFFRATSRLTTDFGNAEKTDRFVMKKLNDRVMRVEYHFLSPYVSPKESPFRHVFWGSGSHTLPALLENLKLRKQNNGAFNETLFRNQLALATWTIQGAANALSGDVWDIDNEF

| Binder | % Blocking [%] |
| --- | --- |
| B1 | 12 |
| B2 | 8 |
| B3 | -2 |
| B4 | 12 |
| B5 | 12 |
| B6 | 14 |
| B7 | 25 |
| B8 | 18 |
| B9 | 3 |
| B10 | 12 |
| B11 | 19 |
| B12 | 3 |
| B13 | 11 |
| B14 | 14 |
| B15 | 5 |
| B16 | 9 |
| B17 | 4 |
